This data set deals with 35S-cysteine-labelled 26 kD proTNFα (in vitro transcribed/translated).

B1: TNFα convertase purified from HL60 cell membrane fraction (identified as PR-3) (protein)
chain: IVGGHEAQPHSRPYMASLQMRGNPGSHFCGGTLIHPSFVLTAAHCLRDIPQRLVNVVLGAHNVRTQEPTQQHFSVAQVFLNNYDAENKLNDVLLIQLSSPANLSASVATVQLPQQDQPVPHGTQCLAMGWGRVGAHDPPAQVLQELNVTVVTFFCRPHNICTFVPRRKAGICFGDSGGPLICDGIIQGIDSFVIWGCATRLFPDFFTRVALYVDWIRSTLR
As to B1, the “cleavage of 26 kD proTNFα to the 17 kD mature form” value is “The purified convertase was shown to cleave the 26 kD proTNFα to the 17 kD mature form”.

(Values after US6586222.)
